The record followed here is publication PMC6955313 (Proceedings of the National Academy of Sciences of the …, 2019).

This data set concerns the molecule itself. The data set can be described thus: time-resolved SAXS/diffraction.

B1: RsaA_(Full-Length), the 98-kDa surface-layer protein (SLP) from Caulobacter crescentus (natural protein)
chain: MAYTTAQLVTAYTNANLGKAPDAATTLTLDAYATQTQTGGLSDAAALTNTLKLVNSTTAVAIQTYQFFTGVAPSAAGLDFLVDSTTNTNDLNDAYYSKFAQENRFINFSINLATGAGAGATAFAAAYTGVSYAQTVATAYDKIIGNAVATAAGVDVAAAVAFLSRQANIDYLTAFVRANTPFTAAADIDLAVKAALIGTILNAATVSGIGGYATATAAMINDLSDGALSTDNAAGVNLFTAYPSSGVSGSTLSLTTGTDTLTGTANNDTFVAGEVAGAATLTVGDTLSGGAGTDVLNWVQAAAVTALPTGVTISGIETMNVTSGAAITLNTSSGVTGLTALNTNTSGAAQTVTAGAGQNLTATTAAQAANNVAVDGGANVTVASTGVTSGTTTVGANSAASGTVSVSVANSSTTTTGAIAVTGGTAVTVAQTAGNAVNTTLTQADVTVTGNSSTTAVTVTQTAAATAGATVAGRVNGAVTITDSAAASATTAGKIATVTLGSFGAATIDSSALTTVNLSGTGTSLGIGRGALTATPTANTLTLNVNGLTTTGAITDSEAAADDGFTTINIAGSTASSTIASLVAADATTLNISGDARVTITSHTAAALTGITVTNSVGATLGAELATGLVFTGGAGADSILLGATTKAIVMGAGDDTVTVSSATLGAGGSVNGGDGTDVLVANVNGSSFSADPAFGGFETLRVAGAAAQGSHNANGFTALQLGATAGATTFTNVAVNVGLTVLAAPTGTTTVTLANATGTSDVFNLTLSSSAALAAGTVALAGVETVNIAATDTNTTAHVDTLTLQATSAKSIVVTGNAGLNLTNTGNTAVTSFDASAVTGTGSAVTFVSANTTVGEVVTIRGGAGADSLTGSATANDTIIGGAGADTLVYTGGTDTFTGGTGADIFDINAIGTSTAFVTITDAAVGDKLDLVGISTNGAIADGAFGAAVTLGAAATLAQYLDAAAAGDGSGTSVAKWFQFGGDTYVVVDSSAGATFVSGADAVIKLTGLVTLTTSAFATEVLTLA
Consider B1, for which the binding result is reported as “binds”.
